Kd data for eight molecules are collected here from US20140335107A1 (published 2014).

For test [1], the target named is T1, extracellular domain of human CD79b fused to Fc (huCD79becd-Fc) (UniProt P40259 29-159).
T1 chain: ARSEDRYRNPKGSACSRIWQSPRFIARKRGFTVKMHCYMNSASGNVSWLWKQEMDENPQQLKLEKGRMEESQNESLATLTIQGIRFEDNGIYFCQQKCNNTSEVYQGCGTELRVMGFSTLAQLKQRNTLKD
Nature of the test: Biacore; IgG. In general terms: SPR reads the build-up and loss of mass on a sensor chip optically.

The target in test [2] is T2, extracellular domain of human CD79b (huCD79becd) (UniProt P40259 29-159).
T2 chain: T1 chain
Put plainly: Biacore; IgG.

Test [3] has as its target T1, extracellular domain of human CD79b …. Nature of the test: Biacore; Fab.
In test [4] the target is T2, extracellular domain of human CD79b …. Put plainly: Biacore; Fab.
Test [5] deals with T3, 16 amino acid peptide containing the epitope for MA79b (ARSEDRYRNPKGSACK) (also: biotinylated (site not given here)).
T3 peptide: ARSEDRYRNPKGSACK
Put plainly: Biacore; IgG.

Numbering of substitutions follows the chain as printed. Where no end group is shown, it is not given here.

B1: murine anti-CD79b monoclonal antibody MA79b (antibody, V domains shown)
VH: EVQLQQSGAELMKPGASVKISCKATGYTFSSYWIEWVKQRPGHGLEWIGEILPGGGDTNYNEIFKGKATFTADTSSNTAYMQLSSLTSEDSAVYYCTRRVPVYFDYWGQGTSVTVSS
VL: DIVLTQSPASLAVSLGQRATISCKASQSVDYDGDSFLNWYQQKPGQPPKLFIYAASNLESGIPARFSGSGSGTDFTLNIHPVEEEDAATYYCQQSNEDPLTFGAGTELELKR
Take B1: the figures for the Kd in test [1] and in test [2] were 2 nM and 4.7 nM, respectively.

B2: MA79b (Fab) (antibody, V domains shown)
VH: B1 VH
VL: DIVLTQSPASLAVSLGQRATISCKASQSVDYDGDSFLNWYQKPGQPPKLFIYAASNLESGIPARFSGSGSGTDFTLNIHPVEEEDAATYYCQQSNEDPLTFGAGTELELKR
Turning to B2, the Kd – broadly, the free concentration of one partner at which half of the binding sites on the other are occupied at equilibrium, for simple one-to-one binding – in test [3] was 200 nM.

B3: huMA79b graft variant with HVR-L2 of SEQ ID NO: 22 (huMA79b L2-2), Fab (Fab, V domains shown)
VH: EVQLVESGGGLVQPGGSLRLSCAASGYTFSSYWIEWVRQAPGKGLEWVGEILPGGGDTNYNEIFKGRFTISADTSKNTAYLQMNSLRAEDTAVYYCTRRVPVYFDYWGQGTLVTVSS
VL: DIQMTQSPSSLSASVGDRVTITCKASQSVDYDGDSFLNWYQQKPGKAPKLLIYAARKLGRGVPSRFSGSGSGTDFTLTISSLQPEDFATYYCQQSNEDPLTFGQGTKVEIKR
Regarding B3, the results for the Kd in test [3] and in test [4] were 44 nM and 39 nM, respectively.

B4: MA79b-grafted humanized antibody (huMA79b graft), IgG (antibody, V domains shown)
VH: B3 VH
VL: B3 VL with R56S, K57N, G59E, R60S
Take B4: in test [2], the Kd is 261 nM.

B5: MA79b-grafted humanized antibody variant L2-2 (huMA79b L2-2), IgG (antibody, V domains shown)
VH: B3 VH
VL: B3 VL
Take B5: binding in test [2] was put at a Kd of 43 nM.

B6: hu MA79b H3-10 (IgG) (antibody, V domains shown)
VH: B3 VH with V102I, Y103R, F104L
VL: B3 VL with R56S, K57N, G59E, R60S
In the case of B6, the Kd in test [2] stood at 29 nM.

B7: hu MA79b H1-6 (IgG) (antibody, V domains shown)
VH: B3 VH with T28P, S30T, S31R, E35N
VL: B3 VL with R56S, K57N, G59E, R60S
In test [2], B7 gave a Kd of 42 nM.

B8: MA79b-grafted humanized antibody variant L2/H3 (huMA79b L2/H3), IgG (antibody, V domains shown)
VH: B3 VH with V102I, Y103R, F104L
VL: B3 VL
Consider B8, for which the Kd is 2 nM in test [1], 1 nM in test [5] and 3 nM in test [2].
